Experimental data published in US20250108100A1, “C-TERMINAL FRAGMENT OF APOLIPOPROTEIN E AND APPLICATION THEREOF IN INHIBITING y-SECRETASE ACTIVITY” (SYNPHATEC (SHANGHAI) BIOPHARMACEUTICAL TECHNOLOGY CO., LTD., priority 2022, published 2025).

Biological target: purified human γ-secretase (NCT-V5-6×His; FLAG-PEN2; APH; PS1) (human) (UniProt Q92542)
Assay: cell-based or functional assay

Chain of ApoE2-3×FLAG (purified) (P02649 19-317 R176C): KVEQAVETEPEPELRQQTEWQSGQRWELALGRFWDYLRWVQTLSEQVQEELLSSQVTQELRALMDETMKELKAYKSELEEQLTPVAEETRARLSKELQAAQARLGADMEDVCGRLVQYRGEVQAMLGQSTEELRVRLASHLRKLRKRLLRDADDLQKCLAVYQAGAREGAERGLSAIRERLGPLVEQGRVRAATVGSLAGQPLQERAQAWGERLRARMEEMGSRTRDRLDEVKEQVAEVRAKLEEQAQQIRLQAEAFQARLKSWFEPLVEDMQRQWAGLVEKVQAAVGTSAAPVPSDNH

IC50 for Aβ production on co-incubation of purified β-CTF and γ-secretase with a concentration series of ApoE2 (ELISA): 1200 nM | half-inhibitory concentration (IC50) for Aβ40 production from purified β-CTF by purified γ-secretase (ELISA): 1200 nM
Substance: ApoE2-3×FLAG (purified) (from UniProt P02649 19-317)
